Test system: MS2 coat protein
Test: apparent KD of MS2 coat protein; designed switch direction (-1 OFF switch, 1 ON switch): -1; higher = weaker reporter binding
Procedure, shortened: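 RNA switches sharing common flanks were transcribed by stalled E. coli RNA polymerase on Illumina chips. A doubling series of SNAP-549-labelled MS2 coat protein, from 0.7 or 1.5 nM to 3 µM, was applied in Tris-HCl pH 7.5 buffer with KCl, MgCl2, BSA, DTT, tRNA and Tween-20. Each step lasted 0.8–1.5 h at the bottom of the series and 10–20 min at the top. Normalised cluster fluorescence was curve-fitted, giving apparent KD as the per-design median over clusters.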

[1] = Eterna round: R95, input ligand: FMN 200 uM
[2] = Eterna round: R95, input ligand: microRNA oligo, concentration not stated
[3] = Eterna round: R95, input ligand: none
[4] = input ligand: microRNA oligo, concentration not stated

Sequence	apparent KD of MS2 coat protein (input ligand: FMN 200 uM)	apparent KD of MS2 coat protein (input ligand: none)	also measured
UAAAGUAUAUAGGAUAUCUAGCUGGUAACAGCUAGAGAAGGAUGUACAUGAGGAUCACCCAUGUAGAUCUCAAA [Ex6/15-A3] (Eterna round: R97, puzzle: Exclusion 6)	19.3 nM	12.8 nM	
AAAACGUGAGGAUAUCCAAUAUAUGACAUGAGGAUCACCCAUGUUUCCACUCGUACCUCCGGAGAAGGCACAAUAA [Ex5 #76] (Eterna round: R97, puzzle: Exclusion 5)	37.6 nM	56.2 nM	
UUUGGCAGAGGAUAUACAUGAGGAUCACCCAUGUAUAAGUGGGAUGCGUGCAAAUACUGUAGAAGGCUGCCUCU [Eternabot (L2) Solution 66] (Eterna round: R97, puzzle: Exclusion 3)	50.1 nM	73 nM	
CUGGUCCGAGGAUAUAUGAUGUGAAACAUGAGGAUCACCCAUGUAAUAUUAUGGAAGAAAAUAGAAGGCGGACUAG [Mat - Exclusion 5 - JL mod - D38] (puzzle: Exclusion 5)			apparent KD of MS2 coat protein [1]: 37.2 nM; apparent KD of MS2 coat protein [2]: 64.3 nM; apparent KD of MS2 coat protein [3]: 71.5 nM
CAUAGUUGCUCAGGAUAUCAUACAUGAGGAUCACCCAUGUAAUAAAUGAGAAUUUCGAAUGUAAAUGAGAAGGGAGAAAUCUAC [Ostracism 60 - Jieux - Exclusion NG 2] (Eterna round: R96, puzzle: Exclusion NG 2)	22.5 nM	14.4 nM	apparent KD of MS2 coat protein [4]: 11.6 nM
UUUUAACAUGAGGAUCACCCAUGUGAGGAUAUCGAAAUUUAUAUUAAUAUUAAUUUAUCGAGAAGGCACAUUUU [JMF 32] (puzzle: Exclusion 1)			apparent KD of MS2 coat protein [2]: 108 nM
GAAUUGUGAGGAUAUUAGUUGUACGUCAAUAGACGUAUAAGUGAGAAGGCACAUGAGGAUCACCCAUGUUCCUG [salish99_ex4_r4_401] (Eterna round: R97, puzzle: Exclusion 4)	57.8 nM	19.4 nM	
CGUCAAGCUUCGGCAGGCAACAUGAGGAUCACCCAUGUCUGCGUUCGUCUUAACUGAUCUAGGGAUAGAUCGUGUGU [Eternabot (L1) Solution 49] (Eterna round: R97, puzzle: Sensor, turn-off variant 1)	18.3 nM	15.4 nM	
GCAAGCUUUUGCUCGUCUUACAUGAGGAUCACCCAUGUCGGGCCCGGGCUUCGUGGCCGGGCCCGCCGGGCGCCGGG [-37, -64.6 kcal, A 10%] (Eterna round: R97, puzzle: Sensor, turn-off variant 1)	56.5 nM	70.4 nM	
AUCGGCUCAGUCAGGAUAUGAUUGAAUCGUUGCAAUUAGAAGGGACAUGAGGAUCACCCAUGUGCGGUGCGGUC [Eternabot (L1) Solution 27] (Eterna round: R97, puzzle: Brourd's mod of Exclusion 4)	178 nM	169 nM	
GUUAACGCAGGAUAUUAGUACUUUUACAUGAGGAUCACCCAUGUUAAUUGGGUCUAAGAAUAAGAAGGGCGAUGAA [JR_Ex5_Sub009] (Eterna round: R97, puzzle: Exclusion 5)	48.3 nM	42.8 nM	
UAAACAAGCUAAAGAUCCUACAUGAGGAUCACCCAUGUGCUCGUCUUAUAAGGUACUGUGACGAAAGUCACGGUACC [JL TOV1 3.00] (Eterna round: R97, puzzle: Sensor, turn-off variant 1)	488 nM	663 nM	
GAUAGAGCAGGAUAUCGAGAUCCGCACAUGAGGAUCACCCAUGUUCGGUCGAAAGACCGACGAGAAGGGCUCUAUC [Omei Ex5 E8] (Eterna round: R97, puzzle: Exclusion 5)	639 nM	603 nM	
GUAUGUGGUAAGGAUAUGCAUAAAACCCGCUCCGCAGAAGGUACCACAUGAGGAUCACCCAUGUGAUACCAAUA [EX6 A.16] (Eterna round: R97, puzzle: Exclusion 6)	16.1 nM	14.3 nM	
ACAUGAGGAUCACCCAUGUUUGGCUGGUUCUCUCCGGCUGUUGAGGAUAUAGUCCGGUAUCCGCGCUAGAAGGUGAGGGCUGGC [Aenatbe mod 7] (Eterna round: R96, puzzle: Exclusion NG 3)	13.5 nM	24.2 nM	apparent KD of MS2 coat protein [4]: 15.8 nM
UAAAAGCUAGGAUAUACAUGAGGAUCACCCAUGUCACGGGUCCACUCAUCCUAUACGUGUAGAAGGAGCGACCC [Ceriza] (puzzle: Exclusion 3)			apparent KD of MS2 coat protein [2]: 20 nM
GGACCGAGUGUGAGGAUAUGCUGGUCCUUGGAUCAGCAGAAGGCACAUGAGGAUCACCCAUGUGGAGACGGUCC [Eli bmx4 4.33] (Eterna round: R97, puzzle: Brourd's mod of Exclusion 4)	1050 nM	87.4 nM	
AGGUGCUUCUGGAGACAUGAGGAUCACCCAUGUCGAGUCAGCGAGGAUAUCGGUAAGGCAUGUGAUGAGAAGGCGCAGACCGAU [Ex NG3 #51] (Eterna round: R96, puzzle: Exclusion NG 3)	33.7 nM	26.4 nM	apparent KD of MS2 coat protein [4]: 20.3 nM
GGUGGACAUGAGGAUCACCCAUGUGAGGAUAUCGGCUGGCUAGUGGCGGCUGGCUUCUCGAGAAGGCGCAUAGU [Exclusion 1 V79] (puzzle: Exclusion 1)			apparent KD of MS2 coat protein [2]: 42.2 nM
CACCGUUACACAGGAUAUCUUACAUGAGGAUCACCCAUGUAAUAAAUGAGAAUUUCGAAUGUAAAAGAGAAGGGUGGAAUCGGC [Ostracism 66 - Jieux - Exclusion NG 2] (Eterna round: R96, puzzle: Exclusion NG 2)	73.1 nM	30.3 nM	apparent KD of MS2 coat protein [4]: 21.8 nM
AUUAUGUCAGGAUAUCAGUAGUAAAAAAAAAAAAUUACUACUGAGAAGGGACAUGAGGAUCACCCAUGUCAAAA [EX4 308: Super Stable 8] (Eterna round: R96, puzzle: Exclusion 4)			apparent KD of MS2 coat protein [4]: 21.3 nM
AUUUAGAGAGGAUAUAUAUUGUGAAACAUGAGGAUCACCCAUGUAAUAAUAUGGAUGUAAAUAGAAGGCUCAUUUA [Mat - Exclusion 5 - JL mod - D9] (puzzle: Exclusion 5)			apparent KD of MS2 coat protein [2]: 41.3 nM
CAGUACUGAGGAUAUACAUGAGGAUCACCCAUGUGCCUAAGGUAGGAUACUACCAUUAGUAGAAGGCAGUACUG [Fiskers Ex 3 828 mod 16] (puzzle: Exclusion 3)			apparent KD of MS2 coat protein [2]: 13.6 nM
AGAAGUAUAGGAUAUACGUCUGCGCACAUGAGGAUCACCCAUGUCGUGUUCCGUGGCAGAGUAGAAGGGUACGGAC [EX5 B.11] (Eterna round: R97, puzzle: Exclusion 5)	305 nM	219 nM	
CGGUGCUUCUGGAAACAUGAGGAUCACCCAUGUUGAGUUAGCGAGGAUAUCGGUAACACUUGUUAUGAGAAGGCGCGAACCAGA [Ex NG3 #35] (Eterna round: R96, puzzle: Exclusion NG 3)	13.6 nM	19.4 nM	apparent KD of MS2 coat protein [4]: 14.6 nM
CUGGUCCGAGGAUAUAUUAAGUGAUACAUGAGGAUCACCCAUGUAAUUUAAUGGAAGUAAAUAGAAGGCGGACUAG [Mat - Exclusion 5 - JL mod - D50] (puzzle: Exclusion 5)			apparent KD of MS2 coat protein [1]: 79.8 nM; apparent KD of MS2 coat protein [2]: 53 nM; apparent KD of MS2 coat protein [3]: 80.5 nM

From the supplement of paper PMC9170038
